This series is described as follows: soluble fraction after stress (log2 fold change); higher = more stays soluble; pooled small domains, quantitative proteomics. The conditions noted are these: stress: 50 degC. In outline: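 After stress at 50°C, the amount of each protein still soluble was measured. This was done on pooled custom libraries of small protein domains, using high-throughput quantitative proteomics. The figure given is a base-two log fold change and stands for aggregation propensity, with higher values meaning more protein stays in solution.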

Turning to “HMQITSTDEIEKMIDELIAANPEQTKQYQNGNHKVAGWFVGQMMKASKGKANPQMVNNLLQKKL”, the “soluble fraction (log2)” value was 0.0271.
As for “HMLISDENMLRDLVQAVLDENPKSVSDYKSGKTKAFGFLVGQTMKAVKGQADPMLVNKILTELLN”, the “soluble fraction (log2)” value is -0.0365.
With “HMQVSDVTTIRALVEEVLSSSPQQLAQYRAGKLSLKGYFVGQVMKKGKGQLNAAAVNNLLDEIL”, the “soluble fraction (log2)” value is -0.185.
As to “HMPKNRTDYVQDVLKSLGRPAHYKEITQIINAMLPKEAQYSAKSIQVVLGSSPLFIRVGTGTYALVE”, the “soluble fraction (log2)” value was -0.679.
With “HMNALNDLESKIFEEVVKAPEIIMNMTIREFASTVHASPTTIVRMTHKLGFSGWNELKTYLQKQKHQIS”, the “soluble fraction (log2)” value was -1.02.
Regarding “HMLRGKNALMSQLDQIQGIGPKRKRALFNHFLTLDAIKQADVETLRQAPGMNLPAAEQVYRHFHM”, the “soluble fraction (log2)” value is 0.0637.
In the case of “HMGPAVGAIRVEGNKRVEPETVRTYLTFNVGDPYDLAKVDESLKALFATGLFQDVRIRREGNTVVIVVVEN”, the “soluble fraction (log2)” value is -0.368.
Consider “HMKTGNPYAQRNTADMYNYGRGIEKDSYLAFVWYFAAYKQGNDNAKPQIDSITASGHLSPNQQLHAKIE”, for which the “soluble fraction (log2)” value was -0.464.
On to “HMTNVVSKNKAKEIAMNIINDTVLQGQTAATFKEIVKANGVYVVKIEIQGQEYTSYITKDGKIVFPYGVEV”, for which the “soluble fraction (log2)” value was -0.451.
With “HMSETAEFIIQVNGKVRAKLQLPTDISKEEIQKLALADENVQKYLNGEPRKIIFPPNTRLVSIV”, the “soluble fraction (log2)” value was -0.0471.
For “HMKNDKLLIFMELKGISRTQLSKSTGIPASTLGRIINGDVQKIKAVYMEAIANALDTSIHTIFDV”, the “soluble fraction (log2)” value was -1.27.
For the sequence “HMPVSRMRARHEALARGVMGIHAGGFSAVYGYRKVWHGLIGKGWDPGEVGRDQVMNIMRGLGMQGVRR”, the “soluble fraction (log2)” value is 0.266.
In the case of “HMTMQTAEQESRLEQKLIDLSVGIDRFEGYSRPHGQLIASIADRIGTRLGMAAHDRFYMQQAAL” it was 0.107; in that of “HMSNGEWQQGSDGRWWYKFSDGTYPKNKVETIGGKKYGFDSEGWMLANTTKEFSGTTYSFGADGVATS”, 0.158; in that of “HMKYSNDEVERDLYVRGVIYQIGDLVENKLDGTSGEVVRRGPNYVQYTDGENFYKAFLSALQEQK”, -0.354.
As to “HMKYTEEIFNILSRGGFISANSVSSTVKRYYDALEEDFTEYYDYYKGIGFYLEAGNGYYLFTR”, the “soluble fraction (log2)” value is -3.29.
As for “HMSDFSSNLRRLRKRAGLSQDALAEKLSVARQTVSSWERGNSYPDLDMLVRISDALATDPNELLYPN”, the figure is -0.00275.
As for “HMPIQLLSEKYMDEHWDELDKDEVSLYQNMSIRFLLKHEDDINWKLYSTNPFISIDTIDFFKDKISWVNI”, the figure is -2.57.
As for “HMGDGAWQQGEGGRWWYKYNNGTYPKDRVVTIGGKKYGFDSEGWMLSDTTKAFGGTTYSFAADGVATAQA”, the figure is -0.0259; as for “HMYLLPVTSTELKGNYPNPFNPETTISFDLKDAERVNLSIYNLKGQLVRTLVNSDLPIGRHRLIWDGNDS”, -0.603.
For “HMSLMHEESLKNIRRFINSLPESLRTAFTLREQDGLSYEEIGVITETPIGTVRSRIFRAREAILEHIKKEL”, the “soluble fraction (log2)” value was -2.24.
As to “HMSSYETVTLNGQRYFKYKVKSGEGLYAISRMFSTPIAEIIRHNPSSNAGLKNGQELLIPVN”, the “soluble fraction (log2)” value was found to be 0.00287.
For “HMIHSEDMDDHILGHKLVDQYLNKHIEFDNIKKAWNYHTVAIKKFGRYPHRNKILKRESTIEEIDFLKQP”, the “soluble fraction (log2)” value was 0.149.
As to “HMRSMEKRLTAKVKRVQEGVQAKSQAGEQPFEVVKLMQRFPKLMQFGKHAEAETVLDKALELLGEE”, the “soluble fraction (log2)” value was 0.172.
In the case of “HMKSVTVIFKESGNVVSSKKLSVVATAQYVDKSRITAPAGYRIATTDSKLKISENNTVTVEVK” it was 0.212; in that of “HMRKTLSQEAYEKIKQNLEDGVYQGYINGRQVARDLDIGFTPVREAFLQLQSEGLIRKEDNVGYFV”, 0.139; in that of “HMRALPFSFANRHGVLIREISDGVAHAVYRIGSSPLGLAEARRFVGMPLMLTPVAREAFDSLLQQTYEQG”, -1.6.
In the case of “HMEEIDLTPAEEILNKLPDNSRGYLIPTLNKIQNAYRFLPDPAMELLMEFFNVSRAEIFGVISFYPQLMI”, the “soluble fraction (log2)” value is -0.0574.
In the case of “HMSVAPISYSQFESYLEQGKVASVAVGQDTIAGRFTAPVDGKSQFVTTIVNPQILDRIDKSGVEITGV” it was 0.176; in that of “HMDSVFGVVTSSDGVKLRKEASTISKVLTVLPYGTEVDVDRIGSEWIRIVTDGGQKGYVSADYLAVREGER”, 0.206.
As for “HMDDISLEEIKYISSKLETKVNEIEELLVRYYDGETNEAEEKELKEFFAQADVPAHLLAEKRLFMQLASQ”, the “soluble fraction (log2)” value was -0.0772.
With “HMAPGVHVEALLPYTAGSLVSQIREYGNVDAVEYRDTGILLQADVDERLAAQIMDQALEDPV”, the “soluble fraction (log2)” value is 0.0408.
Regarding “HMIAVIKPSATAEQKAGLVDWIRGQGIDVHISEGHDYTVLGLIGDTSKIDMDLIASLDIVDSVKRVA”, the “soluble fraction (log2)” value is -0.0298.
For the sequence “HMKALYNLDYEKPLSGSYYTETTARAAVPTDIRKLGLIITYKTDATTNITEQFVGSSISAWTTSGNWKSLG”, the “soluble fraction (log2)” value was -0.424.
Take “HMSQIAENNQKYVGTIQKVLVEGTSKNNDDMLTGRTDSNKVVIFEGDKKLIGNMVELKIVSEHMWYLKGEL”: the “soluble fraction (log2)” value was -0.0348.
In the case of “HMEMDITIQMRTLVEELNRASDAYYNGRGELMTDYEWDAKFDQLKQLESQSGVVLPDSPTHRV”, the “soluble fraction (log2)” value was -0.162.
On to “HMYIDLHEIWKSLTDEEQTVVKLLETEPAHVDTLIENSQIPASRILATLTLLEVRGIVKRLPGRMFSLAD”, for which the “soluble fraction (log2)” value is -1.45.
With “HMGSGKGAAHTILGISADASDDEIKAAWRKLVQENHPDKLVSQGLPDEFVQAATDRLRLINTAYQSMLNRP”, the “soluble fraction (log2)” value was -0.0378.
On to “HMFGEDNLKSKEIKERVTEVAKHADDPVWIEARRKWKDENPDQNVKDYQQAYISGRIHELPWDVSYI”, for which the “soluble fraction (log2)” value turned out to be 0.142.
For the sequence “HMGASVGEVESVKTASEIYTAAAGKIVAVNDAVAKDPSLVNSDPYGNGWLVKLEIADLSAINA”, the “soluble fraction (log2)” value amounted to 0.000115.
For the sequence “HMNAEGLIGREAVALTAVDAHGGRVRLGGEEWSARLSKENGGVSRLSVGDPVRVTDIDGAIAVVAP”, the “soluble fraction (log2)” value worked out at 0.187.
For the sequence “HMSEDAVKFRAAVEVENGLAQRNLNKNQAALILGVDRSYFTYIISGKKTPSPDMAKRIGLLLGFDWRVFYA”, the “soluble fraction (log2)” value was -2.03.
“HMHPMVEAYLADLDRALSGSDPREHAETMSAVREHLADAIAPDATAEQVRHALDELGPVEAIAAG”: the “soluble fraction (log2)” value was 0.0172.
In the case of “HMPRTEILMVDEEMEGERLDAFVAEQLDELSRSLVKTLIENGEIRVDGKQQKPSYRLKAGEEIIVEIPA” it was 0.208; in that of “HMQPIQPNQAKYLDGLSSKYKGKGNHSQAAQLTALRDALNAGDHAKAREIYDKLDYEPQAEAAH”, 0.351.
Take “HMGKEIEAPDFKNMTLKEAKIAAKEYKIRIKKGDEVVSEEVEKGRIVSQDPDAGTTIKTGSTVTVNISKGL”: the “soluble fraction (log2)” value stood at 0.126.
On to “HMLKRLTVEFSAEMPKKMTSEQKEELASVLSEDPRPAYQNDENREYGLDYGEFSVKFKVKDGVLTVTSVTE”, for which the “soluble fraction (log2)” value is -0.0668.
Consider “HMEFPYISGVDVGTISNKEFARFETTKASDIVIALDKSGIPFSARFGDSEIVLTYDGSYKEEVEEIIAKV”, for which the “soluble fraction (log2)” value was 0.0138.
As to “HMNIGIVSLAAVPMRKEPSDRAEMVNQILFGETFDVLEEQEKWTLVQLHHDAYQGWIDRKQWDYASGIAD”, the “soluble fraction (log2)” value is -1.01.
“HMYEINEIIRERRLKKGLTQAQVAKYLGVSAPAVNKWEKGTTYPDLVLLPALARLLDTDLTTLLSF”: the “soluble fraction (log2)” value was -1.38.
In the case of “HMDTITDSYTLEKGKLRAKVMEYELPESKKKEYSATFEYRGVYYHMIGIIEKADFEEILKNLHFP” it was -0.165.
Turning to “HMELVIGESLAVELLRPGKEDGQALGYLPDGSMVVVNNGRAFVGKRVTAEIIGVIRSAGGKMVFSNLLGE”, the “soluble fraction (log2)” value was -2.68.
“HMDIRVAHVDDDMSFGEAFAQARSQVGPGGVFEWHGKLYGTYTAEEWASMSPAERSQYQQAVFN”: the “soluble fraction (log2)” value is -0.0545.
Turning to “HMSEEIKVPNFVGSTFEKAQALAQETGLEIARGEDVYSPDQEEGKITSQNPTADSVVSPGKLITVYVSKG”, the “soluble fraction (log2)” value came out at 0.00159.
For the sequence “HMSKPILSFVDPEKDPSHYVKRYITEETYKDWFSEHFPDYTLYEGIGITQEEYRNIVNELTKP”, the “soluble fraction (log2)” value was -0.493.
“HMTNELTEIFNSIRLTKKQKELLQSNYLSLRETYFLQGKTAFNLKFKNIAGLGKSTKKVLLEFFEESIE”: the “soluble fraction (log2)” value was -1.83.
For “HMEFSYMDQGLERYRAFLETHGHGNVPESYHELKLVNFVAHIRKLYRMNLLSEERRRALDEAGFVF”, the “soluble fraction (log2)” value was -2.17.
In the case of “HMGGPEPIPAQIREGDTVYVTKFKQLGLVLKISEDTAEVQIGPLRATVAKTELSKVDATATEHR” it was 0.158.
For “HMDGMRASDMVRAALAGAGKTQKELAEHMGWTPQNLSGRLKNNSLTFDELSKALHFAGYEVSMSDANGAG”, the “soluble fraction (log2)” value amounted to 0.0567.
Turning to “HMPGLPLWAFSTRGSAIHTGASFRDGDGLLFGPESRGLPDWLLEEVGQDRVLRLPMRPGSRSLNLSNAV”, the “soluble fraction (log2)” value is -0.304.
“HMVIDFYDPQTKVIHEIKKSSAKEEAHVWQVKYYIYLFEKEEIMGVKGVLEYPLLREIVSVNF”: the “soluble fraction (log2)” value turned out to be 0.187.
Turning to “HMDPSHGESRENLDIMRIIDETHLEYPSWGYRKMTDHLRANHGYTINRKRVRRLMRLMDIIALFPG”, the “soluble fraction (log2)” value is -1.47.
“HMYEENFSKIKNDISTIFKRHKISFTNNFISHLSSVFNTDSLTNKMELEKLDSFLINNKKVTENELLKFII”: the “soluble fraction (log2)” value was -0.025.
Take “HMKESRLFRILYYLLQHKKATAPELAEEFEVSVRTIYRDIDYISSAGVPIYATQGKDGGIAILDSF”: the “soluble fraction (log2)” value is -0.65.
For “HMKTLELIAAIRKRIAGGYAGADGRLPNIGEIAKDFSVSPMTAQKAVRALVEAGVLTSTRRKGVFLKQPAS”, the “soluble fraction (log2)” value is -1.01.
In the case of “HMTDNSTTTIRNLKIEWLLEEIRNAVRTGVSVDAAVERISNNPFVKPPEDLLNEARIIFLQNAGQI” it was -0.166.
Consider “HMPLEQAELRLDLKQAILQMDRQTQELLLLRYVDGLSPGEAGKVLELSRFAVYRREKEALRKLRDYFSH”, for which the “soluble fraction (log2)” value is -1.79.
With “HMGGKWKLRILLALENSAQDALRYGEIKNIVSGITDMMLSQSLRELTADGLIERRQYQEIPPKVEYRLS”, the “soluble fraction (log2)” value is -2.51.

Values taken from the domain aggregation screens of Martell et al. (2025).
